# Experimental data taken from patent publication US20100119506A1, “Effectors of PAR-2 Activation and Their Use in the Modulation of Inflammation” (BOEHRINGER INGELHEIM INTERNATIONAL GMBH, priority 2008, published 2010).
# T1: PAR-1 peptide (Homo sapiens, UniProt P25116)
# T1 sequence (P25116 38-66 limits assumed): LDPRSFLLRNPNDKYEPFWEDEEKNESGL
# T2: PAR-4 peptide (Homo sapiens, UniProt Q96RI0, C54S)
# T2 sequence (Q96RI0 44-71 C54S): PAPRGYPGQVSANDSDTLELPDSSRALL
# T3: PAR-2 (Homo sapiens, UniProt P55085)
# T3 sequence (P55085 26-397): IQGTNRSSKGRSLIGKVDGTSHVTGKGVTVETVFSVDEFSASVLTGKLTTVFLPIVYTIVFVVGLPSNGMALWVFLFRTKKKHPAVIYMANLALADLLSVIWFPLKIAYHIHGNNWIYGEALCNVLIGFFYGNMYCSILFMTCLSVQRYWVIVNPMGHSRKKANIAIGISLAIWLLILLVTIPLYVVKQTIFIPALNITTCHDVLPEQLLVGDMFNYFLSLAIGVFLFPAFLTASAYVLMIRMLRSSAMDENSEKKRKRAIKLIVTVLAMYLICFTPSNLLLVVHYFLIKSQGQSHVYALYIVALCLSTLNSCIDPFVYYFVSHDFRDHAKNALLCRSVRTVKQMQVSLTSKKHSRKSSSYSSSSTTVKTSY
# T4: mouse PAR-2 (Mus musculus, UniProt P55086)
# T4 construct: endogenous in cells; host or cells: LLC (mouse Lewis lung carcinoma)
# T4 sequence (P55086 26-399): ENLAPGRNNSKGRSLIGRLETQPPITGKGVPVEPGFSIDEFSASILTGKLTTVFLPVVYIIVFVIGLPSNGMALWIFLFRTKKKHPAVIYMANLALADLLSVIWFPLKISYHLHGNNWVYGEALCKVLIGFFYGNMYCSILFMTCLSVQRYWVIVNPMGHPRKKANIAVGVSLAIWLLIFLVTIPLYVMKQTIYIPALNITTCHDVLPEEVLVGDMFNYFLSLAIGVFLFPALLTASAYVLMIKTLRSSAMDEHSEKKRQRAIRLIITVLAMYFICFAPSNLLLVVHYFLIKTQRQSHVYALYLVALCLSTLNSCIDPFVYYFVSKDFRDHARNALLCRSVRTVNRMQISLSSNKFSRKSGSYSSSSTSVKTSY
# T5: PAR-1 (Homo sapiens, UniProt P25116)
# T5 construct: endogenous in cells; host or cells: A549
# T5 sequence (P25116 22-425): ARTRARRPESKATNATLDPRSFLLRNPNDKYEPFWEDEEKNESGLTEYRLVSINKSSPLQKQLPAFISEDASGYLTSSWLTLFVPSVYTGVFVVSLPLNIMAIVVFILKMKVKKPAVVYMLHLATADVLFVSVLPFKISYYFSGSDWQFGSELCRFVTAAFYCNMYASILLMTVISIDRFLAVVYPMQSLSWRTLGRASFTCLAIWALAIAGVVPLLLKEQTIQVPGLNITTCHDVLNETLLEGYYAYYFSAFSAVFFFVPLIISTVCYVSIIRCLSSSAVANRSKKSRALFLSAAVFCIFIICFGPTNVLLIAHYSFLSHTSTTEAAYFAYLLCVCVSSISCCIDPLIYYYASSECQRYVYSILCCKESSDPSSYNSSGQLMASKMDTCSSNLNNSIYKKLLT
# What was measured:
# PAR-2 peptide = PAR-2 peptide (Homo sapiens, UniProt P55085); test: ELISA binding to PAR-2 peptide; conditions: peptide coupled to Transferrin
# Description: (§1) The molecular selectivity of antibodies for PAR-2 versus PAR-1 and PAR-4 was assessed using peptides derived from the N-terminal regions of all three PARs: […]
# PAR-1 peptide = target: T1, PAR-1 peptide; test: ELISA binding to PAR-1 peptide
# Description: as §1
# PAR-4 peptide = target: T2, PAR-4 peptide; test: ELISA binding to PAR-4 peptide
# Description: as §1
# PAR-2 [1] = target: T3, PAR-2; test: Binding to PAR-2 transfected HEK293 cells; format: cell-based; parameters: expressed in transfected cells; host or cells: HEK293; conditions: for Ratio of EC50 Fab EC50 IgG: HEK-PAR-2 binding; for EC50: Fab, read-out: Binding of Fab to HEK-PAR-2 (#3) (3RBO64) EC50
# Source text: These Fabs were then converted to the IgG4_Pro (“IgG4p”) format. The IgG4_Pro antibodies consist of the variable VH and VL regions derived from corresponding Fabs fused to the constant regions of human IgG4 including a Ser241Pro mutation in the hinge region of the H-chain. The proline substitution in the hinge region is known to prevent the formation of half-molecules in natural human IgG4 molecules (Angal et al. (1993) Molec. Immunol. 30:105-108).
# PAR-2 [2] = target: T3, PAR-2; test: Trypsin induced calcium response (FLIPR) in A549 cells; format: cell-based; parameters: expressing endogenous PAR-2; endogenous in cells; host or cells: A549; conditions: for inhibition of trypsin mediated calcium response/release in A549 (in words): full antibodies
# Description: Using A549 cells, PAR-2 activation was measured by detecting the calcium response following trypsin stimulation. Fabs were tested in this assay for their ability to inhibit this response. […] Antibody concentrations are expressed as μg/ml (FIG. 6).
# (§2) Thrombin activates PAR-1, whereas PAR-2 is activated by trypsin in A549 cells.
# mouse PAR-2 = target: T4, mouse PAR-2; test: FLIPR trypsin-induced calcium release in mouse LLC cells; format: cell-based
# Description: To further assess functional cross-reactivity with mouse PAR-2, the antibodies were tested in FLIPR assays with the mouse Lewis lung carcinoma (LLC) cell line.
# PAR-1 = target: T5, PAR-1; test: Thrombin-induced calcium response (FLIPR) in A549 cells; format: cell-based; conditions: antibody concentrations up to 300 nM
# Source text: as §2
molecule,measurement,setting,value
"Ab4999: affinity matured from Ab3777, L-CDR3 optimized; light chain SEQ ID NO:27, heavy chain SEQ ID NO:7 (antibody, V domains shown, Antibody identified via phage display; Antibody modified via affinity maturation) VH: QVQLVESGGGLVQPGGSLRLSCAASGFTFSSYAMNWVRQAPGKGLEWVSTISYSSSATSYADSVKGRFTISRDNSKNTLYLQMNSLRAEDTAVYYCARIQNDPMDVWGQGTLVTVSS VL: DIELTQPPSVSVAPGQTARISCSGDNLGKKYVQWYQQKPGQAPVLVIYDDSNRPSGIPERFSGSNSGNTATLTISGTQAEDEADYYCQTWDYSSIRDETNVFGGGTKLTVLGQ",binding to PAR-2 peptide (in words),PAR-2 peptide,specific binding
same,binding to PAR-1 peptide (in words),PAR-1 peptide,did not exhibit detectable binding
same,binding to PAR-4 peptide (in words),PAR-4 peptide,no binding
same,Ratio of EC50 Fab EC50 IgG,PAR-2 [1],0.3
"Par-C: codon-optimized anti-PAR-2 antibody; Ab4999 light chain (SEQ ID NO:37), Ab5007 or Ab5151 heavy chain (SEQ ID NO:39) (antibody, V domains shown, Optimized cDNA sequence of variable region of Ab5007 or Ab5151 heavy chain; Optimized cDNA sequence of variable region of Ab4999 light chain) VH: QVELVESGGGLVQPGGSLRLSCAASGFTFSSYAMNWVRQAPGKGLEWVSAISFSGHLTGYADSVKGRFTISRDNSKNTLYLQMNSLRAEDTAVYYCARIQNDPMDVWGQGTLVTVSS VL: DIELTQPPSVSVAPGQTARISCSGDNLGKKYVQWYQQKPGQAPVLVIYDDSNRPSGIPERFSGSNSGNTATLTISGTQAEDEADYYCQTWDYSSIRDETNVFGGGTKLTVLGQ",inhibition of trypsin mediated calcium response/release in A549 (in words),PAR-2 [2],potent inhibition
same,IC50,"PAR-2 [2]; trypsin stimulated, value (SD)",1 nM
same,inhibition of trypsin-induced calcium release in LLC cells (in words),mouse PAR-2,efficient inhibition
same,IC50,"mouse PAR-2; trypsin-induced, value (SD)",0.7 nM
"Ab4997: affinity matured from Ab3777, H-CDR2 optimized; heavy chain SEQ ID NO:23, light chain SEQ ID NO:6 (antibody, V domains shown, Antibody modified via affinity maturation; Antibody identified via phage display) VH: QVQLVESGGGLVQPGGSLRLSCAASGFTFSSYAMNWVRQAPGKGLEWVSAISYNGKLKGYADSVKGRFTISRDNSKNTLYLQMNSLRAEDTAVYYCARIQNDPMDVWGQGTLVTVSS VL: DIELTQPPSVSVAPGQTARISCSGDNLGKKYVQWYQQKPGQAPVLVIYDDSNRPSGIPERFSGSNSGNTATLTISGTQAEDEADYYCSSWDVGSDGWVFGGGTKLTVLGQ",EC50,PAR-2 [1],3.03 nM
same,Ratio of EC50 Fab EC50 IgG,PAR-2 [1],8.0
"Ab5007: affinity matured from Ab3777, H-CDR2 optimized; heavy chain SEQ ID NO:26, light chain SEQ ID NO:6 (antibody, V domains shown, Antibody modified via affinity maturation; Antibody identified via phage display) VH: QVQLVESGGGLVQPGGSLRLSCAASGFTFSSYAMNWVRQAPGKGLEWVSAISFSGHLTGYADSVKGRFTISRDNSKNTLYLQMNSLRAEDTAVYYCARIQNDPMDVWGQGTLVTVSS VL: DIELTQPPSVSVAPGQTARISCSGDNLGKKYVQWYQQKPGQAPVLVIYDDSNRPSGIPERFSGSNSGNTATLTISGTQAEDEADYYCSSWDVGSDGWVFGGGTKLTVLGQ",EC50,PAR-2 [1],9.66 nM
same,Ratio of EC50 Fab EC50 IgG,PAR-2 [1],19.3
"Ab4994: affinity matured from Ab3777, H-CDR2 optimized; heavy chain SEQ ID NO:21, light chain SEQ ID NO:6 (antibody, V domains shown, Antibody modified via affinity maturation; Antibody identified via phage display) VH: QVQLVESGGGLVQPGGSLRLSCAASGFTFSSYAMNWVRQAPGKGLEWVSAISYSGHLTGYADSVKGRFTISRDNSKNTLYLQMNSLRAEDTAVYYCARIQNDPMDVWGQGTLVTVSS VL: DIELTQPPSVSVAPGQTARISCSGDNLGKKYVQWYQQKPGQAPVLVIYDDSNRPSGIPERFSGSNSGNTATLTISGTQAEDEADYYCSSWDVGSDGWVFGGGTKLTVLGQ",EC50,PAR-2 [1],1.9 nM
same,Ratio of EC50 Fab EC50 IgG,PAR-2 [1],4.8
"Ab5003: affinity matured from Ab3777, H-CDR2 optimized; heavy chain SEQ ID NO:24, light chain SEQ ID NO:6 (antibody, V domains shown, Antibody modified via affinity maturation; Antibody identified via phage display) VH: QVQLVESGGGLVQPGGSLRLSCAASGFTFSSYAMNWVRQAPGKGLEWVSAISYKGHLTGYADSVKGRFTISRDNSKNTLYLQMNSLRAEDTAVYYCARIQNDPMDVWGQGTLVTVSS VL: DIELTQPPSVSVAPGQTARISCSGDNLGKKYVQWYQQKPGQAPVLVIYDDSNRPSGIPERFSGSNSGNTATLTISGTQAEDEADYYCSSWDVGSDGWVFGGGTKLTVLGQ",EC50,PAR-2 [1],7.03 nM
same,Ratio of EC50 Fab EC50 IgG,PAR-2 [1],15.3
"Ab5151: cross-cloned: light chain of Ab4999 combined with the heavy chain of Ab5007 (antibody, V domains shown) VH: QVQLVESGGGLVQPGGSLRLSCAASGFTFSSYAMNWVRQAPGKGLEWVSAISFSGHLTGYADSVKGRFTISRDNSKNTLYLQMNSLRAEDTAVYYCARIQNDPMDVWGQGTLVTVSS VL: DIELTQPPSVSVAPGQTARISCSGDNLGKKYVQWYQQKPGQAPVLVIYDDSNRPSGIPERFSGSNSGNTATLTISGTQAEDEADYYCQTWDYSSIRDETNVFGGGTKLTVLGQ",binding to PAR-2 peptide (in words),PAR-2 peptide,specific binding
same,binding to PAR-1 peptide (in words),PAR-1 peptide,did not exhibit detectable binding
same,inhibition of trypsin mediated calcium response/release in A549 (in words),PAR-2 [2],significant inhibition
same,inhibition of the thrombin induced calcium response (in words),PAR-1,no inhibition
same,binding to PAR-4 peptide (in words),PAR-4 peptide,no binding
